Data reported in publication PMC4621360 (2015).

Target: FSFG-K (single FSFG site) (Saccharomyces cerevisiae, UniProt P14907)
Assay: NMR

B1: Kap95 (protein)
chain: STAEFAQLLENSILSPDQNIRLTSETQLKKLSNDNFLQFAGLSSQVLIDENTKLEGRILAALTLKNELVSKDSVKTQQFAQRWITQVSPEAKNQIKTNALTALVSIEPRIANAAAQLIAAIADIELPHGAWPELMKIMVDNTGAEQPENVKRASLLALGYMCESADPQSQALVSSSNNILIAIVQGAQSTETSKAVRLAALNALADSLIFIKNNMEREGERNYLMQVVCEATQAEDIEVQAAAFGCLCKIMSLYYTFMKPYMEQALYALTIATMKSPNDKVASMTVEFWSTICEEEIDIAYELAQFPQSPLQSYNFALSSIKDVVPNLLNLLTRQNEDPEDDDWNVSMSAGACLQLFAQNCGNHILEPVLEFVEQNITADNWRNREAAVMAFGSIMDGPDKVQRTYYVHQALPSILNLMNDQSLQVKETTAWCIGRIADSVAESIDPQQHLPGVVQACLIGLQDHPKVATNCSWTIINLVEQLAEATPSPIYNFYPALVDGLIGAANRIDNEFNARASAFSALTTMVEYATDTVAETSASISTFVMDKLGQTMSVDENQLTLEDAQSLQELQSNILTVLAAVIRKSPSSVEPVADMLMGLFFRLLEKKDSAFIEDDVFYAISALAASLGKGFEKYLETFSPYLLKALNQVDSPVSITAVGFIADISNSLEEDFRRYSDAMMNVLAQMISNPNARRELKPAVLSVFGDIASNIGADFIPYLNDIMALCVAAQNTKPENGTLEALDYQIKVLEAVLDAYVGIVAGLHDKPEALFPYVGTIFQFIAQVAEDPQLYSEDATSRAAVGLIGDIAAMFPDGSIKQFYGQDWVIDYIKRTRSGQLFSQATKDTARWAREQQKRQLSL
- Kd: > 216 µM
